Measurements as given in the DeepSol protein solubility set.

Experiment: soluble on expression in E. coli; label from the status in PepcDB or PDB records

Sequence | soluble on expression in E. coli
MKLLKKPAGLKKRKVISKRIKIEKKPSSEDEGSSDEEVPKLDGEGSLDGSEDEDDGTVTVEKGGVKKHKLDLEKLKQSDPEFFKFLQQEDADLLNMEDDGDDDEDDDEDDEDEEEEESDDDEDDEEDDDKTKIKKIRKPKIKSDNSGRLIVDSNVYSYLQQVLVLDDETSTPTNPSDVRMAVDVFVACVARVGADIEAPKYVINEQSIFEAVVRMCFQAMPDILKRLLKAKPEGDKVLFSKTAIKKYQTYVRTYLHAMIVFLNEVQTTEVLIATIKAMTRLVDLYAHFSRMSKLLIKAVVRIWSRKTLECRLPAFVCMNLLVKNYPQHFVPLYKTAYVAFVANSKIVTNETWPLLQFMHRTFAELTILNPEQAYKYAFVYIRQTAVHLRNAMISKGRKDLIFSIYNWQMMQCMYMWVRVIAKAHSVNGAEQIGELVYPLIQVIVGIFKLCNAPTFLPLRLHCCQLLIQLQASCTNYIPILQVSCDCLEELARELKSKPKPVKGAVKLPDIECTLKCSSQFSDLPQWRKVISEHVFRTMMQSAHLLASQAAFPDVVLPINHRISAILETMKNGDHAHLFRGFQTKLKEHSRFVLDVLARKSVDINDEMQVRAVRFDLNNHDSPIKTFYRQWEKVWKMKERSAVENSKKDDKKKKKEEEAAAAKKRKPNETVEDEDDVKPEVSKAKRKRIKIGAAAKKADASVPDQFADMSMWSDED | soluble
PPKWKVKKQKLAEKAAREAELTAKKAQARQALSIYLNLPTLDEAVNTLKPWWPGLFDGDTPRLLACGIRDVLLEDVAQRNIPLSHKKLRRAMKAITRSESYLCAMKAGACRYDTEGYVTEHISQEEEVYAAERLDKIRRQNRIKAELQAVLD | soluble
MNEEKQQELLISVIITNYNYDQFIDQAIESVLSQTYYNFELIIVDDGSTDNSRDVISSYTDSRIKALVKNNGGQASAFNAGFEQANGEIICFLDSDDWWKPEKLETIIRWHYFINKDYAIFQHVLDVWYEGKTRPYKHILPSGDCFAEMKKVKKLDFFVPTSGLSFPKKILDRIFPIPIKFIIAADSYIMRTACVFNMVYSIPKSLGFYRQHDNTVFLNPDFDLQPFLKEILIPELNQFYQKYRINYQIEISDYNFNERKKNKKQKIFEYLKKVFFLEHHHHHH | not soluble
MSLDSIVNAYEESDVLDPRTDAERPSVPPVIKPVDLGPVHVETPVVLSPMAGVTNWPFRVICESYGPDGLYVAEMITARALVARNPKALRLCRFAPSEKIRSLQLYGVNPSIVEQAAKIVIDENMADHVDLNFGCPVPKVTRRGGGSALPWKTDLFREIIQRVVKVCDAANVPVTAKIRVGIDHEHETFLEAGHIAQEEGCKAVTLHARTTAEYYGGHSDWSRIGELVSELDIPVFGNGDIWGANDALAMVAETGCAGVAIGRGCQGRPWLFADIKNAFAGSDERVDPTLGDVCRVIERHAELLTEFYDEGHHHHHH | not soluble
SNAMTHIQLDFSKTLEFFGEHELKQQQEIVKSIHKTIHEGTGAGSDFLGWVDLPVDYDKEEFSRIVEASKRIKENSDVLVVIGIGGSYLGARAAIEMLTSSFRNSNEYPEIVFVGNHLSSTYTKELVDYLADKDFSVNVISKSGTTTEPAVAFRLFKQLVEERYGKEEAQKRIFATTDKEKGALKQLATNEGYETFIVPDDVGGRYSVLTAVGLLPIATAGINIEAMMIGAAKAREELSSDKLEENIAYQYATIRNILYAKGYTTEMLINYEPSMQYFNEWWKQLFGESEGKDFKGIYPSSANYTTDLHSLGQYVQEGRRFLFETVVKVNHPKYDITIEKDSDDLDGLNYLAGKTIDEVNTKAFEGTLLAHTDGGVPNMVVNIPQLDEETFGYVVYFFELACAMSGYQLGVNPFNQPGVEAYKQNMFALLGKPGFEDLKKELEERL | soluble
MLLRKGTVYVLVIRADLVNAMVAHARRDHPDEACGVLAGPEGSDRPERHIPMTNAERSPTFYRLDSGEQLKVWRAMEDADEVPVVIYHSHTATEAYPSRTDVKLATEPDAHYVLVSTRDPHRHELRSYRIVDGAVTEEPVNVVEQYLEHHHHHH | not soluble
MGHHHHHHSHMAAAIASSLIRQKRQAREREKSNACKCVSSPSKGKTSCDKNKLNVFSRVKLFGSKKRRRRRPEPQLKGIVTKLYSRQGYHLQLQADGTIDGTKDEDSTYTLFNLIPVGLRVVAIQGVQTKLYLAMNSEGYLYTSELFTPECKFKESVFENYYVTYSSMIYRQQQSGRGWYLGLNKEGEIMKGNHVKKNKPAAHFLPKPLKVAMYKEPSLHDLTEFSRSGSGTPTKSRSVSGVLNGGKSMSHNEST | soluble
MAHHHHHHMITLQLEQHRQQLENELRKVQLQQAQQQQQLQHVQHHHNQHNQHQQQQQLQYQQSLPPVQTTMVTIDGRLYRMVSASSGEAFVNRGQPCRDLHFVDRSALVSDGSAGADGRTEAAAPQPSNHPGVCMPVSPQAELSPQQQQQHMIITVAGDRSALGETTSAAAAASLAKSSAPGTNVMLVMPTPSASHKVKYGY | soluble
ATEAHPAGGRLVLRPVRKSDAGLFAMYAGDRRVAEGTRGIPHPLPPGAAEAFVNRSTAEARSEDVWVMDGSASGLSEVLGVISLKRMDRDQSEIAYWVAPAFWNAGFASEAVRALIEANPQGSRTIFAEVFQDNPQSARVLTNCGFEYIGDAEAFSVARNARVPTWTY | not soluble
MKSMQDYRTIMTGNDAVAYGAKLARVKLISAYPITPQTTIVEKLASMIANDELDAKYVKVESEHSALATVVSSELAGVRSYTATSSHGLLYMHEMLHWASGQRLPIVMSVVNRAIGPPWNIWADQSDTMNQKDTGWMQVYCESNQEALDTIIMGYKIAENKDVLLPLMSMEDAFILSHTSEPVTIRDQESVNEYLPDLDLPFKINEEHPMGYGSYDTPDGSFMELKKDMVDSMQKAKRIIEDETRKFNEMFGTEYGGLIEKYRMEDADYAIIATGTIASTARYVVDILRKKGEKVGLIRIRYFRPFPYEEILSSLKYVKAAGVIDRSVSFSSGGPTYVEIVQGLYGKLNVPLSSFIAGIGGRDVRIQDIENIYEMLKSGNSGTYWINVKEVR | not soluble
MTEFFSQKQIDEIRECFNFYSTSGVLRTDSQLRCALRSLGYSPTASKTDIYFKKLNKKPIEFATFLDICKDEQNSPNPLTEIIKALSGLDRNKTRAMPSRELAAILSHVGEQMSPEEIKYLLSKVEVNGMVPHQALIEYISK | not soluble
MSLTYYLSIDYGGTNTKALIFDKLGHQIAVSSFETLKNETQSGHRQVNLVKTWNAITSAIREVIQISKLSPEQISAVACIGHGKGLYLLDNKLEPLEQGILSTDNRAKDLAQYFESKLDNIWELTRQHIFPSQSPVILRWLKDYQPETYKSIGAVLSAKDFIRYKLTGKVQQEYGDASGNHWINFQTGTYDPAILDFFGIREIENSLPELIDSADLVPGGISSQAAKETGLVEGTPVVGGLFDIDACALGSGVLESDTFSVISGTWNINTYPSLKPAKQDSGLMTSYFPDRRYLLEASSPTSAGNLNFMLKMLMHQEIDNAKSSGGSIYDNLEEFLTHTDATHHGLIFFPFLYGSNTSQDASACFFGLTTKSTKSQMIRAVYEGIAFAHKQHITDLIKSRGSVPKIIRFSGGATNSPAWMQMFSDILNFPIETVEGTELGGLGGAILARHALDKISLKEAVQDMVRVKAIYKPQLSEVKGYKKKYHAYQKLLETLDPIWSELGHLNEGHHHHHH | soluble
GPLGSHMSQAVQTNGTQPLSKTWELSLYELQRTPQEAITDGLEIVVSPRSLHSELMCPICLDMLKNTMTTKECLHRFCADCIITALRSGNKECPTCRKKLVSKRSLRPDPNFDALISKIYPSRDEYEAHQERVLARINKHNNQQALSHSIEEGLKIQAMNRLQRG | soluble
MGMYFVGIDGGGTSCRARIKDSQGNFLGEAKSGSANIMLGAEIAMASILESITSAAEQGGLTQQDFASMHVGLALAGAEHKASWQAFMSLPHPFASMTLNTDAYGACVGAHNGEDGAIMIAGTGSCGIYLKGLEQHVVGGREFPISDQGGGAVMGLRLVQQVLLAEDGIREKTPLAQHVMAYFENDVDNVVAWSKQALPRDYGQFSPAIFQHAEQGDALAIEMLKQTAADIEMFLVALNKRGATRICLMGSIAERILRWLSPPVQQWVVEPQFDAIEGAIMFAGKPEHNLYSLSAALEHHHHHH | not soluble
MGSDKIHHHHHHLEELDQMRAVFGTRPWREPTDTPAVISVSNFKGGVGKSTVALHLAQHFAIHGYRVLFIDCDSQASSTMMFGYRPDVDLTEDDTLYGHFHNPELLGVRSIIRKTHFFGLDLIPANLKLYNLEYEIAGYLAQNQNFDIIDLIAEAIDTVVDDYDVVVMDPPPALGMVSMAVLQAANAMVIPVPPSVIDFASTVSFIDMARTTMKQLEQIAGRVKPAYNFIRLVGSRVDESKSMHREILSMMRQVFGGSMATSVLKTSAEIDNASSRMKTVFELDRPVTSHEVHNRCMKHLSDVCREIETDVLRTWASRAGEAV | not soluble
MGSDKIHHHHHHMIVLGHRGYSAKYLENTLEAFMKAIEAGANGVELDVRLSKDGKVVVSHDEDLKRLFGLDVKIRDATVSELKELTDGKITTLKEVFENVSDDKIINIEIKEREAADAVLEISKKRKNLIFSSFDLDLLDEKFKGTKYGYLIDEENYGSIENFVERVEKERPYSLHVPYQAFELEYAVEVLRSFRKKGIVIFVWTLNDPEIYRKIRREIDGVITDEVELFVKLR | not soluble
MNLRGILPFAHDTLRKVVRSGDYVVDATCGNGHDTLLLAELVGINGHVLGFDIQQLAIDATNTRLENAGVSSQVELVCASHARIPEYTSKPVRAAIFNLGYLPGGDKEITTTADSTLESIGHLMELLEVGGVIILVIYHGHPAGKQEKDAVMTFCEAIPQQDFHVLSYNFINQKNDAPFVIIIEKRKPRQSLEHHHHHH | soluble
MARFSGKSVIITGSSNGIGRSAAVIFAKEGAQVTITGRNEDRLEETKQQILKAGVPAEKINAVVADVTEASGQDDIINTTLAKFGKIDILVNNAGANLADGTANTDQPVELYQKTFKLNFQAVIEMTQKTKEHLIKTKGEIVNVSSIVAGPQAHSGYPYYACAKAALDQYTRCTAIDLIQHGVRVNSVSPGAVATGFMGAMGLPETASDKLYSFIGSRKECIPVGHCGKPEEIANIIVFLADRNLSSYIIGQSIVADGGSTLVMGMQTHDLMSVLSQ | soluble
GAHMAGGRSWCLRRVGMSAGWLLLEDGCEVTVGRGFGVTYQLVSKICPLMISRNHCVLKQNPEGQWTIMDNKSLNGVWLNRARLEPLRVYSIHQGDYIQLGVPLENKENAEYEYEVTEEDWETIYPCLSPKNDQMIEK | soluble
NGSKTDLGLLSKNSADFLGSSKRSLAGFDTPFSPDNLQYLEKETDYDQNFKSFTEKFKDEKITNNQLGIVDIYNLFSGFHKSVKSTVDLMNQLQKQVEAANAIFPVDDAFVKLPKVPTELFKLVDDNVFPKLNPKGLNISDNIAALFERYNLKSIELKNFDLAFLRKADVIIKDKVRYNFEM | not soluble
MTGAVCPGSFDPVTLGHVDIFERAAAQFDEVVVAILVNPAKTGMFDLDERIAMVKESTTHLPNLRVQVGHGLVVDFVRSCGMTAIVKGLRTGTDFEYELQMAQMNKHIAGVDTFFVATAPRYSFVSSSLAKEVAMLGGDVSELLPEPVNRRLRDRLN | soluble
MSALQSLRPALRTAYGLAVRSDIDLPELEPLPGDGAADLTVRRGALPELPGEGGFRTRFAPERAELWWQTVGTFRVEPGLVTASPHAGVSEDLVAYPLLGSVLALALEQLGLFTIHASAVSVGGHGVVMMGDKGAGKSTTATAMIRAGHPLIADDIVAVDEGFRLRPGFPQVKLSPAAAAAFDAPDAVHRPTVPEVPEKCRVLLPERFARGATPLKRIYRLERAPAGTEPAVISVSPIEALPLALRFAYVTRFGAEALNGAAGARHLRQAAAIAASGVLHRVIVPHALDRLPEVVALIERDAGAAALEHHHHHH | not soluble
